Assay [1] concerns the target T1, human ADAM17 on tumour cells (A431, MCF-7, NCI-H1299) (human, UniProt P78536 215-824).
T1 construct: Endogenous ADAM17 on human tumour cell lines; also called cellular form of ADAM17
Description: binding to NCI-H1299 tumour cells, read as MFI against antibody concentration (Log [M]).

Assay [2] concerns the target T2, H475-602 (D-MPD (Nter)) human ADAM17 human Fc fusion (human, UniProt P78536 475-602).
T2 construct: Expressed in HEK293 and purified on protein A; not shown: human Fc domain at the C-terminus
In words: SPR Biacore X100, about 700 RU m1022C3 captured, construct at 250 nM for 3 min. As to the method:
(§1) The experiment was performed on a Biacore X100 device. The mAb 1022C3 is used as the ligand and the ADAM17 fragments and chimeric constructs are used as the analyte. The experiment is run at 10 μl/min at 25° C. on a rabbit anti-mouse polyclonal antibody (Mouse antibody capture kit, BR-1008-38, GE Healthcare) covalently linked to the matrix of both flowcells of a CM5 sensorchip (BR-1000-12) using the amine coupling kit (BR-1000-50, GE Healthcare), using the HBS-EP+ buffer (BR-1008-26, GE Healthcare) as the running buffer. This buffer is also used for the dilutions of the ligand and the analytes.

Assay [3] concerns the target T3, H223-602 (C-D MPD (Nter)) human ADAM17 human Fc fusion (human, UniProt P78536 223-602).
T3 construct: Expressed in HEK293 and purified on protein A; not shown: human Fc domain at the C-terminus
Described as above. As to the method: as §1

The target in assay [4] is T4, H223-563 (C-D) human ADAM17 human Fc fusion (human, UniProt P78536 223-563).
T4 construct: Expressed in HEK293 and purified on protein A; not shown: human Fc domain at the C-terminus
The assay is described as above. As to the method: as §1

Assay [5] deals with T5, H475-563 (D) human ADAM17 human Fc fusion (human, UniProt P78536 475-563).
T5 construct: Expressed in HEK293 and purified on protein A; not shown: human Fc domain at the C-terminus
Described as above. As to the method: as §1

Assay [6] concerns the target T6, H603-671 (MPD (Cter)) human ADAM17 human Fc fusion (human, UniProt P78536 603-671).
T6 construct: Expressed in HEK293 and purified on protein A; not shown: human Fc domain at the C-terminus
The assay is described as above. As to the method:
as §1

The target of assay [7] is T7, H1-474 (P-C) human ADAM17 human Fc fusion (human, UniProt P78536 18-474).
T7 construct: Expressed in HEK293 and purified on protein A; not shown: human Fc domain at the C-terminus
The description is as above. The procedure: as §1

The target of assay [8] is soluble ADAM17 (extracellular domain of ADAM-17) (human, UniProt P78536 215-671). In words: SPR Biacore, antibody captured on rabbit anti-mouse IgG, soluble ADAM17 400 to 12.5 nM, 1:1 Langmuir model. The procedure:
The antibody (ligand) was bound to the second flowcell of a Biacore CM5 sensor chip (GE Healthcare) activated on both flowcells with a Rabbit anti-Mouse (RAM) IgG (H+L) covalently linked to the carboxymethyldextran matrix. Soluble ADAM17 (analyte) at concentrations ranging from 400 to 12.5 nM obtained by a two fold dilution scheme (assuming a molecular weight of 52 kDa) was injected onto the surface at a flow rate of 30 μl/min in a 120 s pulse (association) plus an extra 180 s delay for the dissociation phase measurement. The RAM surface was regenerated using NaOH 30 mM, NaCl 150 mM and 10 mM Glycine, HCl pH 1.5 buffer solutions. Curves obtained at each concentration were double referenced by first subtracting the signal from the reference FC1 surface (RAM without any mouse anti-TACE mAb) followed by subtraction of the signal obtained from a running buffer injection (Biacore HBS-EP buffer).
Data were processed using BIAevaluation 3.1 software using the 1:1 Langmuir model. The suitability of the fit was measured by the values of the Refractive Index (RI) which have to tend to zero and the κ² value.

The target in assay [9] is M1-602H603-671 (p-c-d-mpd (Nter)-MPD (Cter)) murine/human chimeric ADAM17 human Fc fusion (murine; human) (UniProt Q9Z0F8). Description: SPR Biacore X100, about 700 RU m1022C3 captured, construct at 250 nM for 3 min.
Assay [10] concerns the target ADAM17 fragments and chimeric constructs giving the positive response (BIAcore). Described as above.
In assay [11] the target is M1-671 (p-c-d-mpd) murine ADAM17 human Fc fusion (murine) (UniProt Q9Z0F8). The description is as above.
For assay [12], the target named is T1, human ADAM17 on tumour cells (A431, …). In words: cell-based or functional assay.

Usually Kd stands for a measure of binding affinity in units of concentration. By koff is commonly meant a measure of how fast the partners let go of each other. A low value points to slow dissociation. As usually defined, the kon is the second-order rate constant of association. Low readings indicate slow association, high ones fast association.

Substitutions are numbered along the chain they refer to. Where only a bound is given, the exact number is not on record here.

Chain of soluble ADAM17 (extracellular domain of ADAM-17) (P78536 215-671): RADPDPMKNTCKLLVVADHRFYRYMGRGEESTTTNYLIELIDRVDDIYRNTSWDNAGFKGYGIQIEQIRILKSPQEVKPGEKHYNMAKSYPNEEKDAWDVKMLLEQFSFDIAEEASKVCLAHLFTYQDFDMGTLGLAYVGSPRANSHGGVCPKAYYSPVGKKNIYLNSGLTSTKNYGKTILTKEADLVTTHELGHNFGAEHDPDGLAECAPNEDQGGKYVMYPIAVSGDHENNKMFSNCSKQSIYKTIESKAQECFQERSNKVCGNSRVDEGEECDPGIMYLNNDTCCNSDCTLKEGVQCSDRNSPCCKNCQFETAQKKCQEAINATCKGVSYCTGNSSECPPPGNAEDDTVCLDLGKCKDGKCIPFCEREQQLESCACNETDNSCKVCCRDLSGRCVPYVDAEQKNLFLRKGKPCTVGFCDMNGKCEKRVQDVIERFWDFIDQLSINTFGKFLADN
T1 sequence (P78536 215-824 limits assumed): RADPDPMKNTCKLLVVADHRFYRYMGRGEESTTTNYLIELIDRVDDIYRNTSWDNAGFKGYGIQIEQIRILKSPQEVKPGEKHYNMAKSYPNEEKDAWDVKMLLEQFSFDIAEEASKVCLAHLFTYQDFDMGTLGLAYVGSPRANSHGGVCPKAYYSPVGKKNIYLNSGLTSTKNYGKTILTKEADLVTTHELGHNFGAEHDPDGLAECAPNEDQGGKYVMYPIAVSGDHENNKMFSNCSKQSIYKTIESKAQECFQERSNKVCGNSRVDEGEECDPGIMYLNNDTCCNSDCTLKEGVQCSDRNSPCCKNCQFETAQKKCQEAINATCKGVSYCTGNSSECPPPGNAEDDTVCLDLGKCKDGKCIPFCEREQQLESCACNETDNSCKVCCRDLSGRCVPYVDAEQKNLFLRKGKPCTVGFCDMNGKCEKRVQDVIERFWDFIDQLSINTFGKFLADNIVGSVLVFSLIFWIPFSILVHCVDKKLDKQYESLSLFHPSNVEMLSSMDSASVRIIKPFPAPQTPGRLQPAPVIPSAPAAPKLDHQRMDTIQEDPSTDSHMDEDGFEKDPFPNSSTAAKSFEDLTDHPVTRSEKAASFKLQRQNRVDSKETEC
Chain of M1-671 (p-c-d-mpd) murine ADAM17 human Fc fusion (murine) (Q9Z0F8 18-671 limits assumed, form in doubt): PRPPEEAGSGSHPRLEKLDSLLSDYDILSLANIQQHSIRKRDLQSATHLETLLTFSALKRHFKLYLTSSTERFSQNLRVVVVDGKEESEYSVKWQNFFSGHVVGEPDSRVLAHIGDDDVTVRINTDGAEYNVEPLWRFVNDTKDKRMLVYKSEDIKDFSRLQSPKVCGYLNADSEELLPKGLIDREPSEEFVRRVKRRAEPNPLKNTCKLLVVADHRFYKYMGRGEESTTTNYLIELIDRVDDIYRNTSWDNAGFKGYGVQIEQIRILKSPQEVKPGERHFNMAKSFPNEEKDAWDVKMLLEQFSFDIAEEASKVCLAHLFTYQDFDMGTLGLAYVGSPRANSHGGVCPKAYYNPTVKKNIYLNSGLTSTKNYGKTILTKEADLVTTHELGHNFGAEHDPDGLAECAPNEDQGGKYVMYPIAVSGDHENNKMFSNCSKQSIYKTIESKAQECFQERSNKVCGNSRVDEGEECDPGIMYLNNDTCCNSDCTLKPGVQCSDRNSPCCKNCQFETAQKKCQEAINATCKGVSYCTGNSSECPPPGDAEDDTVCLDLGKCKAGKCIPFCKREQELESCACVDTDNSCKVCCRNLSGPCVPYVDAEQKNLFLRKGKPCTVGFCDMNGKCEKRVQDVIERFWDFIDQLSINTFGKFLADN
T3 sequence (P78536 223-602): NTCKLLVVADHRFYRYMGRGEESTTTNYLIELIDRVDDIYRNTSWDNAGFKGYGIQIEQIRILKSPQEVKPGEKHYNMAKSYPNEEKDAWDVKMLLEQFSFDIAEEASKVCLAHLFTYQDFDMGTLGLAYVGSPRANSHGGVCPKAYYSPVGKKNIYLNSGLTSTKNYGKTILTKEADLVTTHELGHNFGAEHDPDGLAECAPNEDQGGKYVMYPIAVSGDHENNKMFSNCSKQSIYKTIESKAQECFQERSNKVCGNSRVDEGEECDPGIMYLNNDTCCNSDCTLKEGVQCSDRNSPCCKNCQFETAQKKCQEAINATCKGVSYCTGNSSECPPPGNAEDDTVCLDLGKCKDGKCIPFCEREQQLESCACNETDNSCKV
T4 sequence (P78536 223-563): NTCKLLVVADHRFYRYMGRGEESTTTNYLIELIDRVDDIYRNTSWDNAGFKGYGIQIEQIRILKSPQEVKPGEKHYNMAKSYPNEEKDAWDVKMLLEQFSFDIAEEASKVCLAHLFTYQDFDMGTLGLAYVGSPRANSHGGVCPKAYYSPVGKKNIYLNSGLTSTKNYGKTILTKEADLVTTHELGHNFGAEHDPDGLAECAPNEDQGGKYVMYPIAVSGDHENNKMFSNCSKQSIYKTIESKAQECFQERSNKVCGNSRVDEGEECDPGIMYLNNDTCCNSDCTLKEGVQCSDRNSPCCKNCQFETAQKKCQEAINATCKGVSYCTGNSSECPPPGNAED
T5 sequence (P78536 475-563): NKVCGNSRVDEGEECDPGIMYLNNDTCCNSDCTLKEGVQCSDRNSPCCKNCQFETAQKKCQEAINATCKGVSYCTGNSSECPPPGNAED
T7 sequence (P78536 18-474): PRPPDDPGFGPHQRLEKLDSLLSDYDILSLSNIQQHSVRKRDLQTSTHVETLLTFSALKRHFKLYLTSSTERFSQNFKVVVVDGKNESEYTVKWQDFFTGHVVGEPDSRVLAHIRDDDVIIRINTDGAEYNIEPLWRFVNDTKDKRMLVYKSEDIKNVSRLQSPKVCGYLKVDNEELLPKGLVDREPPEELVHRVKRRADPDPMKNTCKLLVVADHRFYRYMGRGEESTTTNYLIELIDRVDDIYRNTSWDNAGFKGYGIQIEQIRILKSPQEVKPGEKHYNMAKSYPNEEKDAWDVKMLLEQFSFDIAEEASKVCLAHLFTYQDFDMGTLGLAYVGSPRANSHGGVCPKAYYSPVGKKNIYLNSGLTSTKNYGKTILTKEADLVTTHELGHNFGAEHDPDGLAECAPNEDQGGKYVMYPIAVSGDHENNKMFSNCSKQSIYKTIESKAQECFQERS
T2 sequence (P78536 475-602): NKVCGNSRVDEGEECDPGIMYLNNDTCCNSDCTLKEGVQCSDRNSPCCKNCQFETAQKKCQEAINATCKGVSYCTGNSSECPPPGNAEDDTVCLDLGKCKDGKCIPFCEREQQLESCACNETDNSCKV
Chain of M1-602H603-671 (p-c-d-mpd (Nter)-MPD (Cter)) murine/human chimeric ADAM17 human Fc fusion (murine; human) (Q9Z0F8 other isoform, or with tags, fused parts or gaps mutant limits assumed, form in doubt): as the sequence (Q9Z0F8 18-671 limits assumed, form in doubt) above, with N589D, P593R counted along it
T6 sequence (P78536 603-671): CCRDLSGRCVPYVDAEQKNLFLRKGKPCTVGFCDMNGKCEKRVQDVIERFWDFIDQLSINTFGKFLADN

B1: enzymatically deglycosylated m1022C3 (antibody, V domains shown)
VH: QVTLKESGPGILQPSQTLSLTCSFSGFSLDTSGMGVSWIRQPSGKGLEWLAHIYWDDDKRYNPSLKSRLTISKDTSSNQVFLKITSLDTADTATYYCARRSHFGNYYYAMDYWGQGTSVTVTS
VL: DVQMTQTTSSLSASLGDRVTISCRASQDISSYLNWYQQKPDGTFKLLIFYTSRLQSGVPSKYSGSGSGTDYSLTISNLEQEDIAAYFCQQGKTLPLTFGAGTKLELK
notes: also called enzymatically deglycosylated 1022C3
As to B1, the binding result in assay [1] is reported as “binds”.

B2: m1022C3 (murine anti-ADAM17 monoclonal antibody 1022C3, hybridoma I-4686) (antibody, V domains shown)
VH: B1 VH with D30N
VL: B1 VL
modifications: N-glycosylated asparagine in CDR-H1
notes: Murine antibody from a hybridoma; also called mAb 1022C3; mAb m1022C3
As for B2, the “response (RU)” value in assay [2], in assay [3], in assay [4], in assay [5], in [6] and in assay [7] was below 10 RU throughout. The response (RU) in [9] was below 10 RU; in [10], 90 to 140 RU; in assay [11], below 10 RU. Moreover, binding in assay [8] was put at a Kd of 1.27 nM. The molecule further had a koff in [8] of 0.00036 s⁻¹. Besides, the kon in [8] was 284000 M⁻¹ s⁻¹. The “IC50 (nM), inhibition of AREG-Nluc shedding from A431 cells” value in assay [12] stood at 0.067 nM. Also, the “IC50 (nM), inhibition of HB-EGF-Nluc shedding from A431 cells” value in [12] was determined as 0.062 nM. For the same molecule, the “IC50 (nM), inhibition of TGFα-Nluc shedding from A431 cells” value in [12] came to 0.093 nM. In [12], the “IC50 (nM), inhibition of TNFα-Nluc shedding from A431 cells” value is 0.054 nM. The “IC50 (nM), mean over the four substrates shed from A431 cells” value in assay [12] was 0.069 nM.

These data come from patent US20160326257A1 (PIERRE FABRE MEDICAMENT, published 2016).
